# Measured values: publication PMC12331936, “Structural Insights into the Protein Mannosyltransferase from Mycobacterium tuberculosis reveal a WW-Domain-Like Protein Motif in Bacteria” (Communications Biology, 2025)
# Test system: MtPMT
# Format: cell-based
# Conditions: MtPMT mutant expressed in M. smegmatis ΔMsPMT; ELLA, relative to WT (100%) and No PMT (0%)
Molecule,FasC^His mannosylation / MtPMT enzymatic activity (ConA binding),reduction (drop) of apparent FasC mannosylation level [%]
"D74A (protein, UniProt P9WN05 1-522, looked up, variant D74A) Polyprenol-phosphate-mannose-- …: MTARPPESCVLAKDRPEEPVVPVVSPGPLVPVADFGPLDRLRGWIVTGLITLLATVTRFLNLGSLTDAGTPIFAEKHYAPQAWQVLNNHGVEDNPGYGLVVHPPVGKQLIAIGEAIFGYNGFGWRFTGALLGVVLVALVVRIVRRISRSTLVGAIAGVLLICDGVSFVTARTALLDGFLTFFVVAAFGALIVDRDQVRERMHIALLAGRSAATVWGPRVGVRWWRFGAGVLLGLACATKWSGVYFVLFFGAMALAFDVAARRQYQVQRPWLGTVRRDVLPSGYALGLIPFAVYLATYAPWFASETAIDRHAVGQAVGRNSVVPLPDAVRSLWHYTAKAFHFHAGLTNSAGNYHPWESKPWTWPMSLRPVLYAIDQQDVAGCGAQSCVKAEMLVGTPAMWWLAVPVLAYAGWRMFVRRDWRYAVVLVGYCAGWLPWFADIDRQMYFFYAATMAPFLVMGISLVLGDILYHPGQGSERRTLGLIVVCCYVALVVTNFAWLYPVLTGLPISQQTWNLEIWLPSWR",complete lack of mannosylation,
"R441L (protein, UniProt P9WN05 1-522, looked up, variant R441L) Polyprenol-phosphate-mannose-- …: MTARPPESCVLAKDRPEEPVVPVVSPGPLVPVADFGPLDRLRGWIVTGLITLLATVTRFLNLGSLTDAGTPIFDEKHYAPQAWQVLNNHGVEDNPGYGLVVHPPVGKQLIAIGEAIFGYNGFGWRFTGALLGVVLVALVVRIVRRISRSTLVGAIAGVLLICDGVSFVTARTALLDGFLTFFVVAAFGALIVDRDQVRERMHIALLAGRSAATVWGPRVGVRWWRFGAGVLLGLACATKWSGVYFVLFFGAMALAFDVAARRQYQVQRPWLGTVRRDVLPSGYALGLIPFAVYLATYAPWFASETAIDRHAVGQAVGRNSVVPLPDAVRSLWHYTAKAFHFHAGLTNSAGNYHPWESKPWTWPMSLRPVLYAIDQQDVAGCGAQSCVKAEMLVGTPAMWWLAVPVLAYAGWRMFVRRDWRYAVVLVGYCAGWLPWFADIDLQMYFFYAATMAPFLVMGISLVLGDILYHPGQGSERRTLGLIVVCCYVALVVTNFAWLYPVLTGLPISQQTWNLEIWLPSWR",completely abolished FasC mannosylation,
"S365T (protein, UniProt P9WN05 1-522, looked up, variant S365T) Polyprenol-phosphate-mannose-- …: MTARPPESCVLAKDRPEEPVVPVVSPGPLVPVADFGPLDRLRGWIVTGLITLLATVTRFLNLGSLTDAGTPIFDEKHYAPQAWQVLNNHGVEDNPGYGLVVHPPVGKQLIAIGEAIFGYNGFGWRFTGALLGVVLVALVVRIVRRISRSTLVGAIAGVLLICDGVSFVTARTALLDGFLTFFVVAAFGALIVDRDQVRERMHIALLAGRSAATVWGPRVGVRWWRFGAGVLLGLACATKWSGVYFVLFFGAMALAFDVAARRQYQVQRPWLGTVRRDVLPSGYALGLIPFAVYLATYAPWFASETAIDRHAVGQAVGRNSVVPLPDAVRSLWHYTAKAFHFHAGLTNSAGNYHPWESKPWTWPMTLRPVLYAIDQQDVAGCGAQSCVKAEMLVGTPAMWWLAVPVLAYAGWRMFVRRDWRYAVVLVGYCAGWLPWFADIDRQMYFFYAATMAPFLVMGISLVLGDILYHPGQGSERRTLGLIVVCCYVALVVTNFAWLYPVLTGLPISQQTWNLEIWLPSWR",only partially impacted FasC mannosylation,
"D74E (protein, UniProt P9WN05 1-522, looked up, variant D74E) Polyprenol-phosphate-mannose-- …: MTARPPESCVLAKDRPEEPVVPVVSPGPLVPVADFGPLDRLRGWIVTGLITLLATVTRFLNLGSLTDAGTPIFEEKHYAPQAWQVLNNHGVEDNPGYGLVVHPPVGKQLIAIGEAIFGYNGFGWRFTGALLGVVLVALVVRIVRRISRSTLVGAIAGVLLICDGVSFVTARTALLDGFLTFFVVAAFGALIVDRDQVRERMHIALLAGRSAATVWGPRVGVRWWRFGAGVLLGLACATKWSGVYFVLFFGAMALAFDVAARRQYQVQRPWLGTVRRDVLPSGYALGLIPFAVYLATYAPWFASETAIDRHAVGQAVGRNSVVPLPDAVRSLWHYTAKAFHFHAGLTNSAGNYHPWESKPWTWPMSLRPVLYAIDQQDVAGCGAQSCVKAEMLVGTPAMWWLAVPVLAYAGWRMFVRRDWRYAVVLVGYCAGWLPWFADIDRQMYFFYAATMAPFLVMGISLVLGDILYHPGQGSERRTLGLIVVCCYVALVVTNFAWLYPVLTGLPISQQTWNLEIWLPSWR",only marginally restored enzyme activity,
"D176E (protein, UniProt P9WN05 1-522, looked up, variant D176E) Polyprenol-phosphate-mannose-- …: MTARPPESCVLAKDRPEEPVVPVVSPGPLVPVADFGPLDRLRGWIVTGLITLLATVTRFLNLGSLTDAGTPIFDEKHYAPQAWQVLNNHGVEDNPGYGLVVHPPVGKQLIAIGEAIFGYNGFGWRFTGALLGVVLVALVVRIVRRISRSTLVGAIAGVLLICDGVSFVTARTALLEGFLTFFVVAAFGALIVDRDQVRERMHIALLAGRSAATVWGPRVGVRWWRFGAGVLLGLACATKWSGVYFVLFFGAMALAFDVAARRQYQVQRPWLGTVRRDVLPSGYALGLIPFAVYLATYAPWFASETAIDRHAVGQAVGRNSVVPLPDAVRSLWHYTAKAFHFHAGLTNSAGNYHPWESKPWTWPMSLRPVLYAIDQQDVAGCGAQSCVKAEMLVGTPAMWWLAVPVLAYAGWRMFVRRDWRYAVVLVGYCAGWLPWFADIDRQMYFFYAATMAPFLVMGISLVLGDILYHPGQGSERRTLGLIVVCCYVALVVTNFAWLYPVLTGLPISQQTWNLEIWLPSWR",slightly restored mannosylation activity,
"Y371A-L392A (protein, UniProt P9WN05 1-522, looked up, variant Y371A L392A) Polyprenol-phosphate-mannose-- …: MTARPPESCVLAKDRPEEPVVPVVSPGPLVPVADFGPLDRLRGWIVTGLITLLATVTRFLNLGSLTDAGTPIFDEKHYAPQAWQVLNNHGVEDNPGYGLVVHPPVGKQLIAIGEAIFGYNGFGWRFTGALLGVVLVALVVRIVRRISRSTLVGAIAGVLLICDGVSFVTARTALLDGFLTFFVVAAFGALIVDRDQVRERMHIALLAGRSAATVWGPRVGVRWWRFGAGVLLGLACATKWSGVYFVLFFGAMALAFDVAARRQYQVQRPWLGTVRRDVLPSGYALGLIPFAVYLATYAPWFASETAIDRHAVGQAVGRNSVVPLPDAVRSLWHYTAKAFHFHAGLTNSAGNYHPWESKPWTWPMSLRPVLAAIDQQDVAGCGAQSCVKAEMAVGTPAMWWLAVPVLAYAGWRMFVRRDWRYAVVLVGYCAGWLPWFADIDRQMYFFYAATMAPFLVMGISLVLGDILYHPGQGSERRTLGLIVVCCYVALVVTNFAWLYPVLTGLPISQQTWNLEIWLPSWR",complete abolition of the mannosyl transferase activity,
"phenylalanine was substituted for Y444: MtPMT with phenylalanine substituted for Y444 (protein, UniProt P9WN05 1-522, looked up, variant Y444F) Polyprenol-phosphate-mannose-- …: MTARPPESCVLAKDRPEEPVVPVVSPGPLVPVADFGPLDRLRGWIVTGLITLLATVTRFLNLGSLTDAGTPIFDEKHYAPQAWQVLNNHGVEDNPGYGLVVHPPVGKQLIAIGEAIFGYNGFGWRFTGALLGVVLVALVVRIVRRISRSTLVGAIAGVLLICDGVSFVTARTALLDGFLTFFVVAAFGALIVDRDQVRERMHIALLAGRSAATVWGPRVGVRWWRFGAGVLLGLACATKWSGVYFVLFFGAMALAFDVAARRQYQVQRPWLGTVRRDVLPSGYALGLIPFAVYLATYAPWFASETAIDRHAVGQAVGRNSVVPLPDAVRSLWHYTAKAFHFHAGLTNSAGNYHPWESKPWTWPMSLRPVLYAIDQQDVAGCGAQSCVKAEMLVGTPAMWWLAVPVLAYAGWRMFVRRDWRYAVVLVGYCAGWLPWFADIDRQMFFFYAATMAPFLVMGISLVLGDILYHPGQGSERRTLGLIVVCCYVALVVTNFAWLYPVLTGLPISQQTWNLEIWLPSWR",almost half of the FasC mannosylation level remained,
"R441A (protein, UniProt P9WN05 1-522, looked up, variant R441A) Polyprenol-phosphate-mannose-- …: MTARPPESCVLAKDRPEEPVVPVVSPGPLVPVADFGPLDRLRGWIVTGLITLLATVTRFLNLGSLTDAGTPIFDEKHYAPQAWQVLNNHGVEDNPGYGLVVHPPVGKQLIAIGEAIFGYNGFGWRFTGALLGVVLVALVVRIVRRISRSTLVGAIAGVLLICDGVSFVTARTALLDGFLTFFVVAAFGALIVDRDQVRERMHIALLAGRSAATVWGPRVGVRWWRFGAGVLLGLACATKWSGVYFVLFFGAMALAFDVAARRQYQVQRPWLGTVRRDVLPSGYALGLIPFAVYLATYAPWFASETAIDRHAVGQAVGRNSVVPLPDAVRSLWHYTAKAFHFHAGLTNSAGNYHPWESKPWTWPMSLRPVLYAIDQQDVAGCGAQSCVKAEMLVGTPAMWWLAVPVLAYAGWRMFVRRDWRYAVVLVGYCAGWLPWFADIDAQMYFFYAATMAPFLVMGISLVLGDILYHPGQGSERRTLGLIVVCCYVALVVTNFAWLYPVLTGLPISQQTWNLEIWLPSWR",completely abolished FasC mannosylation,
"L392A (protein, UniProt P9WN05 1-522, looked up, variant L392A) Polyprenol-phosphate-mannose-- …: MTARPPESCVLAKDRPEEPVVPVVSPGPLVPVADFGPLDRLRGWIVTGLITLLATVTRFLNLGSLTDAGTPIFDEKHYAPQAWQVLNNHGVEDNPGYGLVVHPPVGKQLIAIGEAIFGYNGFGWRFTGALLGVVLVALVVRIVRRISRSTLVGAIAGVLLICDGVSFVTARTALLDGFLTFFVVAAFGALIVDRDQVRERMHIALLAGRSAATVWGPRVGVRWWRFGAGVLLGLACATKWSGVYFVLFFGAMALAFDVAARRQYQVQRPWLGTVRRDVLPSGYALGLIPFAVYLATYAPWFASETAIDRHAVGQAVGRNSVVPLPDAVRSLWHYTAKAFHFHAGLTNSAGNYHPWESKPWTWPMSLRPVLYAIDQQDVAGCGAQSCVKAEMAVGTPAMWWLAVPVLAYAGWRMFVRRDWRYAVVLVGYCAGWLPWFADIDRQMYFFYAATMAPFLVMGISLVLGDILYHPGQGSERRTLGLIVVCCYVALVVTNFAWLYPVLTGLPISQQTWNLEIWLPSWR",,73
"E74D75: di-substitution of D74E75 with the reversed doublet (protein, UniProt P9WN05 1-522, looked up, variant D74E E75D) Polyprenol-phosphate-mannose-- …: MTARPPESCVLAKDRPEEPVVPVVSPGPLVPVADFGPLDRLRGWIVTGLITLLATVTRFLNLGSLTDAGTPIFEDKHYAPQAWQVLNNHGVEDNPGYGLVVHPPVGKQLIAIGEAIFGYNGFGWRFTGALLGVVLVALVVRIVRRISRSTLVGAIAGVLLICDGVSFVTARTALLDGFLTFFVVAAFGALIVDRDQVRERMHIALLAGRSAATVWGPRVGVRWWRFGAGVLLGLACATKWSGVYFVLFFGAMALAFDVAARRQYQVQRPWLGTVRRDVLPSGYALGLIPFAVYLATYAPWFASETAIDRHAVGQAVGRNSVVPLPDAVRSLWHYTAKAFHFHAGLTNSAGNYHPWESKPWTWPMSLRPVLYAIDQQDVAGCGAQSCVKAEMLVGTPAMWWLAVPVLAYAGWRMFVRRDWRYAVVLVGYCAGWLPWFADIDRQMYFFYAATMAPFLVMGISLVLGDILYHPGQGSERRTLGLIVVCCYVALVVTNFAWLYPVLTGLPISQQTWNLEIWLPSWR",failed to restore Fasc^His mannosylation,
